Experimental findings from patent US20220064277A1 (NEURACLE SCIENCE, published 2022) are described below.

This assay deals with human FAM19A5-Fc protein (Lot# 170815) (human, UniProt Q7Z5A7 44-132). The experiment in a line: cell-based or functional assay.
Chain of human FAM19A5-Fc protein (Lot# 170815) (Q7Z5A7 other isoform, or with tags, fused parts or gaps): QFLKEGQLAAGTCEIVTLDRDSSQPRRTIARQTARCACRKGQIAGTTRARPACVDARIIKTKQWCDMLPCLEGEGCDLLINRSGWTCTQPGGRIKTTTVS

B1: anti-FAM19A5 antibody (clone "1-30"; Lot# A5m180831) (antibody, V domains shown)
VH: AVTLDESGGGLQTPGGALRLSCKASGFDFESFNMFWVRQAPGKGLEYVSQISSSEEDENYAPAVKGRATISRDNGQSTLYLQMNSLRAEDTGTYYCAKSSYDCPYGHCSSGVDSAGEIDAWGHGTEVIVSS
VL: ALTQPSSVSANPGETVKITCSGGGSEEEQYYYGWYQQKPGSAPVTLIYQDEERPSDIPSRFSGSTSGSTATLTITGVQAGDEADYYCGSWDSEDEDHFGAGTTLTVL
For B1, the “IC50 for inhibition of the FAM19A5-Fc-enhanced TNF-α production by LPS-stimulated BV2 cells (mouse TNF-α ELISA)” value came out at 11.5 µg/mL.
